IntAct's records for PubMed 16357825

B1: Retinal rod rhodopsin-sensitive cGMP 3',5'-cyclic phosphodiesterase subunit gamma (Homo sapiens), P18545 (parent)
chain: MNLEPPKAEFRSATRVAGGPVTPRKGPPKFKQRQTRQFKSKPPKKGVQGFGDDIPGMEGLGTDITVICPWEAFNHLELHELAQYGII
B2: Retinal rod rhodopsin-sensitive cGMP 3',5'-cyclic phosphodiesterase subunit gamma (Homo sapiens), P18545 (parent)
chain: B1 chain
partner: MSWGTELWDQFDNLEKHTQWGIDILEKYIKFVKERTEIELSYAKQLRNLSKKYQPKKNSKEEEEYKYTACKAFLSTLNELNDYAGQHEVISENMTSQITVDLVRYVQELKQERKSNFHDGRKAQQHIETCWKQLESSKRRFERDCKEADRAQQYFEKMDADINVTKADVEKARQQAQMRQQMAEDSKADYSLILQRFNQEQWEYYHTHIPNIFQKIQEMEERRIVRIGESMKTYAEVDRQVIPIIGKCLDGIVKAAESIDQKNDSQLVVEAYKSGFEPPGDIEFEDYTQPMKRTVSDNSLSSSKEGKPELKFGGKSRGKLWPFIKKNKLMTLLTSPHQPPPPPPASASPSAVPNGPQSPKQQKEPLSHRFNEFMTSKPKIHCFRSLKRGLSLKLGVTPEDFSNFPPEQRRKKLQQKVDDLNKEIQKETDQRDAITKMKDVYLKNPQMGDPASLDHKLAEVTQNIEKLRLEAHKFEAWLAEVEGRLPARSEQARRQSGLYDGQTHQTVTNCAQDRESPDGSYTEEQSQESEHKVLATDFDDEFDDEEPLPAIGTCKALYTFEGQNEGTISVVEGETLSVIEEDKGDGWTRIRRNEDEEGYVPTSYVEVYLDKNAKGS

Experiments:
[1] = variants of: B1; settings: with pacn2_rat Pacsin2, Q9QY17
grb2_rat Grb2, P62994 = variants of: B1; settings: with grb2_rat Grb2, P62994
src_rat Src, Q9WUD9 = variants of: B1; settings: with src_rat Src
fnbp1_rat Fnbp1, Q8R511 = variants of: B2; settings: with fnbp1_rat Fnbp1, Q8R511

| effect of a mutation on the interaction [1] | effect of a mutation on the interaction (grb2_rat Grb2, P62994) | effect of a mutation on the interaction (src_rat Src, Q9WUD9) | effect of a mutation on the interaction (fnbp1_rat Fnbp1, Q8R511) | Variant |
| --- | --- | --- | --- | --- |
| decreasing interaction | decreasing interaction | disrupting interaction | – | MNLEPPKAEFRSATRVAGGAVTPRKGPPKFKQRQTRQFKSKPPKKGVQGFGDDIPGMEGLGTDITVICPWEAFNHLELHELAQYGII [P20A] |
| decreasing interaction | decreasing interaction | disrupting interaction | – | MNLEPPKAEFRSATRVAGGPVTARKGPPKFKQRQTRQFKSKPPKKGVQGFGDDIPGMEGLGTDITVICPWEAFNHLELHELAQYGII [P23A] |
| – | – | – | disrupting interaction | MNLEPPKAEFRSATRVAGGPVTARKGPPKFKQRQTRQFKSKPPKKGVQGFGDDIPGMEGLGTDITVICPWEAFNHLELHELAQYGII [P23A] |
| – | – | – | disrupting interaction | MNLEPPKAEFRSATRVAGGAVTPRKGPPKFKQRQTRQFKSKPPKKGVQGFGDDIPGMEGLGTDITVICPWEAFNHLELHELAQYGII [P20A] |
